Values quoted from earlier work in PMC9381557.

Target: RAGE V domain (Homo sapiens) (UniProt Q15109)
Sequence of UniProt Q15109 (Q15109 23-116): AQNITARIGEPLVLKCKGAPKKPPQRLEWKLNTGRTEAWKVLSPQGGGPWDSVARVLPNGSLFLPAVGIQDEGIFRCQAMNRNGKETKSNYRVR

For S100P (from UniProt P25815), the Kd is given as 6.8 µM.
